From patent US20130065259A1

Tested on: SNAPtide (FITC/DABCYL), List Biological Laboratories product #521

## BoNT/A complex
  Km, non-bead based assay (free BoNT/A), SNAPtide conversion: typical Km=0.7 µM
  fold change of Km, immobilized against free enzyme: 3.2-fold lower
